Test results published in PMC9972942, “E6-Encoded by Cancer-Causing Human Papillomavirus Interacts with Aurora Kinase A To Promote HPV-Mediated Carcinogenesis” (Journal of Virology, 2023).

T1: GST-tagged HPV16 E7 (human papillomavirus type 16, UniProt P03129 1-98)
T1 construct: E7 oncoprotein of human papillomavirus type 16; also called GST-16 E7; HPVE7; source: E. coli, purified GST fusion protein
T1 sequence: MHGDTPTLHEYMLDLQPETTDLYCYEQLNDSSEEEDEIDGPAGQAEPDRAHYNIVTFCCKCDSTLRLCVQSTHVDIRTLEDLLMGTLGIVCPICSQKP

T2: GST-tagged HPV58 E6 (human papillomavirus type 58, UniProt P26555 1-149)
T2 construct: E6 oncoprotein of human papillomavirus type 58; construct pGEX2T:HPV-58 E6; also called GST-58E6; source: E. coli, IPTG-induced, purified on glutathione-conjugated agarose
T2 sequence: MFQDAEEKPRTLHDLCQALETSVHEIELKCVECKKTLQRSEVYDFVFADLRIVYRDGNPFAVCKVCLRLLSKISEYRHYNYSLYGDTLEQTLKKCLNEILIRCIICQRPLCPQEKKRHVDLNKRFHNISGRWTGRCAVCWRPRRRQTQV

T3: GST-tagged HPV11 E6 (human papillomavirus type 11, UniProt P04019 1-150)
T3 construct: E6 protein of human papillomavirus type 11 (low-risk type); construct pGEX2T:HPV-11 E6; also called GST-11E6; lr-HPV11E6; source: E. coli, IPTG-induced, purified on glutathione-conjugated agarose
T3 sequence: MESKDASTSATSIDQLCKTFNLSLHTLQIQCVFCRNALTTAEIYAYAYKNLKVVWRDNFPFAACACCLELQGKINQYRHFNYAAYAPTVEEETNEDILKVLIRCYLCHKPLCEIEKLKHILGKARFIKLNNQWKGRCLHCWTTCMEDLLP


Tests used:
[1] = target: GST-tagged HPV16 E6 with its PDZ binding motif deleted (human papillomavirus type 16)
[2] = target: GST-tagged HPV16 E6 with its PDZ binding motif deleted (human papillomavirus type 16); assay: pull-down; purified GST fusion proteins on glutathione-conjugated agarose incubated with equal amounts of in vitro-translated HA-AurA, 1 h at room temperature; washed 3 times with PBS containing 0.1% Tween 20; bound AurA detected by Western blotting with an HA-specific antibody; bands quantified with ImageJ relative to GST-16E6 (n = 3)
[3] = target: T4, GST-tagged HPV16 E6 S150A (human papillomavirus type 16, UniProt P03126 1-158, S150A); assay: cell-based or functional assay
GST-tagged HPV16 E6 S89A [4] = target: T5, GST-tagged HPV16 E6 S89A (human papillomavirus type 16, UniProt P03126 1-158, S89A); assay: cell-based or functional assay
[5] = target: GST-tagged HPV16 E6 wild type (human papillomavirus type 16, UniProt P03126 1-158); assay: cell-based or functional assay
[6] = target: T6, GST-tagged HPV16 E6 T140A (human papillomavirus type 16, UniProt P03126 1-158, T140A); assay: cell-based or functional assay
[7] = target: T7, GST-tagged HPV16 E6 S145A (human papillomavirus type 16, UniProt P03126 1-158, S145A); assay: cell-based or functional assay
[8] = target: T4, GST-tagged HPV16 E6 S150A; assay: pull-down; purified GST fusion proteins on glutathione-conjugated agarose incubated with equal amounts of in vitro-translated HA-AurA, 1 h at room temperature; washed 3 times with PBS containing 0.1% Tween 20; bound AurA detected by Western blotting with an HA-specific antibody; bands quantified with ImageJ relative to GST-16E6 (n = 3); settings: one partner purified
GST-tagged HPV16 E6 S89A [9] = target: T5, GST-tagged HPV16 E6 S89A; assay: as above; settings: one partner purified
GST-tagged HPV16 E7 = target: T1, GST-tagged HPV16 E7; assay: as above; settings: one partner purified
GST-tagged HPV18 E6 = target: T8, GST-tagged HPV18 E6 (human papillomavirus type 18, UniProt P06463 1-158); assay: as above; settings: one partner purified
T8 construct: E6 oncoprotein of human papillomavirus type 18; construct pGEX2T:HPV-18 E6; also called GST-18E6; source: E. coli, IPTG-induced, purified on glutathione-conjugated agarose

GST-tagged HPV58 E6 = target: T2, GST-tagged HPV58 E6; assay: as above; settings: one partner purified
GST-tagged HPV11 E6 = target: T3, GST-tagged HPV11 E6; assay: as above; settings: one partner purified
[10] = target: T6, GST-tagged HPV16 E6 T140A; assay: as above; settings: one partner purified
[11] = target: T7, GST-tagged HPV16 E6 S145A; assay: as above; settings: one partner purified

| Molecule | AurA kinase activity (ADP-Glo) of purified AurA in the presence of GST-E6 ΔPBM, relative to AurA with GST alone [1] | AurA bound relative to GST-16E6 (%) [2] [%] | AurA kinase activity (ADP-Glo) of purified AurA in the presence of GST-E6 S150A, relative to AurA with GST alone [3] | AurA kinase activity (ADP-Glo) of purified AurA in the presence of GST-E6 S89A, relative to AurA with GST alone (GST-tagged HPV16 E6 S89A [4]) | AurA kinase activity (ADP-Glo) of purified AurA in the presence of GST-E6, relative to AurA with GST alone [5] | AurA kinase activity (ADP-Glo) of purified AurA in the presence of GST-E6 T140A, relative to AurA with GST alone [6] | AurA kinase activity (ADP-Glo) of purified AurA in the presence of GST-E6 S145A, relative to AurA with GST alone [7] | AurA bound relative to GST-16E6 wild type (%) [8] [%] | AurA bound relative to GST-16E6 wild type (%) (GST-tagged HPV16 E6 S89A [9]) | AurA bound relative to GST-16E6 (%) (GST-tagged HPV16 E7) | AurA bound relative to GST-16E6 (%) (GST-tagged HPV18 E6) | AurA bound relative to GST-16E6 (%) (GST-tagged HPV58 E6) | AurA bound relative to GST-16E6 (%) (GST-tagged HPV11 E6) | AurA bound relative to GST-16E6 wild type (%) [10] [%] | AurA bound relative to GST-16E6 wild type (%) [11] [%] |
| --- | --- | --- | --- | --- | --- | --- | --- | --- | --- | --- | --- | --- | --- | --- | --- |
| Aurora kinase A (HA-AurA, in vitro translated) (from UniProt O14965 1-403) (enzyme) | 0.85 | 87 | – | – | – | – | – | – | – | – | – | – | – | – | – |
| Aurora kinase A (HA-AurA, in vitro translated) (enzyme, UniProt O14965 1-403, looked up, Aurora kinase A (AurA); plasmid pcDNA3.1:HA-AurA; the functional rows are written on this molecule; source: in vitro translated (TNT Coupled Reticulocyte Lysate System, Promega)) MDRSKENCISGPVKATAPVGGPKRVLVTQQFPCQNPLPVNSGQAQRVLCPSNSSQRIPLQAQKLVSSHKPVQNQKQKQLQATSVPHPVSRPLNNTQKSKQPLPSAPENNPEEELASKQKNEESKKRQWALEDFEIGRPLGKGKFGNVYLAREKQSKFILALKVLFKAQLEKAGVEHQLRREVEIQSHLRHPNILRLYGYFHDATRVYLILEYAPLGTVYRELQKLSKFDEQRTATYITELANALSYCHSKRVIHRDIKPENLLLGSAGELKIADFGWSVHAPSSRRTTLCGTLDYLPPEMIEGRMHDEKVDLWSLGVLCYEFLVGKPPFEANTYQETYKRISRVEFTFPDFVTEGARDLISRLLKHNPSQRPMLREVLEHPWITANSSKPSNCQNKESASKQS | – | – | 0.68 | 0.65 | 0.85 | 0.61 | 0.68 | 56 | 67.3 | 37.3 | 102 | 158 | 12 | 25.3 | 24 |
